We go through 4 molecules from patent US20250145689A1 (CIRCULAR COMMITMENT, published 2025).

As a reminder, the Kd is the concentration at which binding is half-saturated.

Experiment [1] concerns the target Recombinant water soluble mouse PLVAP (extracellular domain, residues 48-438) (mouse) (UniProt Q91VC4). The experiment can be described thus: told in the legend of the competitive ELISA; method of the comparison not stated. A general note: In an ELISA, binding on a coated surface is turned into a signal by an enzyme label.
Experiment [2] shares this target. As to the kind of experiment: Scatchard analysis; plate-coated recombinant mouse PLVAP, bound Fab-TF measured by chromogenic TF activity; mean ± SD of 6 batches.
Experiment [3] shares this target. The experiment can be described thus: competitive ELISA on plate-coated mouse PLVAP; competitor biotinylated MECA32 mAb.
Experiment [4] concerns the target T1, Recombinant water soluble mouse PLVAP (extracellular domain, residues 48-438) (mouse, UniProt Q91VC4 48-438).
T1 construct: The cDNA clone (Invitrogen) is not tied to NP_115774.2 in words; His-tag not reported as removed; also called mPLVAP; His-mPLVAP; not shown: His-tag of the pET-15b vector
T1 sequence: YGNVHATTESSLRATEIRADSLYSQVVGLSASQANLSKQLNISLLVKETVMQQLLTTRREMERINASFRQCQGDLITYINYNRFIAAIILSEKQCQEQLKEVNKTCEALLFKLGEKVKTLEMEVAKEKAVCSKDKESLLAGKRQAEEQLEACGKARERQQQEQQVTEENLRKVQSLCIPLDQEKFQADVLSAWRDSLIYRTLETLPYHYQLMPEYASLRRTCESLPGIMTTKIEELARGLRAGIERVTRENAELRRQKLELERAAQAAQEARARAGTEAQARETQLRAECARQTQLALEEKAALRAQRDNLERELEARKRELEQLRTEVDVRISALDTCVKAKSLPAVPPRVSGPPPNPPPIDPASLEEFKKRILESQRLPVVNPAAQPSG
The experiment can be described thus: ELISA on plate-coated mouse PLVAP, detected with biotinylated anti-hTF antibody.

The target in experiment [5] is T2, Recombinant water soluble human PLVAP (extracellular domain, residues 51-442) (human) (UniProt Q9BX97).
T2 sequence: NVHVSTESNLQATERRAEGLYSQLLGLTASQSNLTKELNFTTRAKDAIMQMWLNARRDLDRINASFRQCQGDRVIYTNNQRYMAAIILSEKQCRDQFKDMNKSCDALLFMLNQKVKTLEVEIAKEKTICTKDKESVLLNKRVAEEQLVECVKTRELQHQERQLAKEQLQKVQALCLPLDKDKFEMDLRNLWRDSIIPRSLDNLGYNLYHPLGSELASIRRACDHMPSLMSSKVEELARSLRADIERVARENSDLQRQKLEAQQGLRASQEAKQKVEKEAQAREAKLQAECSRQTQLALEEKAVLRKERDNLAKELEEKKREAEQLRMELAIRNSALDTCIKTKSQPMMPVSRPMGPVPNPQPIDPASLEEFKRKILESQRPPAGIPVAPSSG
The experiment can be described thus: Scatchard analysis; plate-coated recombinant human PLVAP, bound Fab-TF measured by chromogenic TF activity; mean ± SD of 3 batches.

“Fab fragment of MECA32 anti-mouse PLVAP monoclonal antibody co-expressing human tissue factor”: the binding affinity against MECA32 mAb in experiment [1] was 1 log lower. Moreover, the Kd in experiment [2] was found to be 57.2 nM.
As to “Rat anti-mouse PLVAP MECA32 monoclonal antibody”, in experiment [3], the potency in competition against MECA32-Fab-TF came to 1 log.

B1: Soluble human tissue factor without antibody (other)
chain: SGTTNTVAAYNLTWKSTNFKTILEWEPKPVNQVYTVQISTKSGDWKSKCFYTTDTECDLTDEIVKDVKQTYLARVFSYPAGNVESTGSAGEPLYENSPEFTPYLETNLGQPTIQSFEQVGTKVNVTVEDERTLVRRNNTFLSLRDVFGKDLIYTLYYWKSSSSGKKTAKTNTNEFLIDVDKGENYCFSVQAVIPSRTVNRKSTDSPVECMGQEKGEFRE
notes: also called hTF; control soluble hTF
For the molecule B1, the binding result in experiment [4] is listed as “no binding”.

B2: Recombinant Fab fragment of CSRO2 anti-human PLVAP monoclonal antibody co-expressing water-soluble human tissue factor (Fab, part only; not given: Humanized CSRO2 kappa light chain, part only)
heavy: MQVQLVQSGSELKKPGASVKVSCKASGYTFTSNYINWVRQAPGQGLEWMGNIYPSDGFTNYNQKFKDRVTITVDKSTSTAYMELSSLRSEDTAVYYCTRNFDVWGQGTTVTVSSASTKGPSVFPLAPCSRSTSESTAALGCLVKDYFPEPVTVSWNSGALTSGVHTFPAVLQSSGLYSLSSVVTVPSSSLGTKTYTCNVDHKPSNTKVDKRVESKYGPPCPSCPGGGGSGGGGSGGGGSSGTTNTVAAYNLTWKSTNFKTILEWEPKPVNQVYTVQISTKSGDWKSKCFYTTDTECDLTDEIVKDVKQTYLARVFSYPAGNVESTGSAGEPLYENSPEFTPYLETNLGQPTIQSFEQVGTKVNVTVEDERTLVRRNNTFLSLRDVFGKDLIYTLYYWKSSSSGKKTAKTNTNEFLIDVDKGENYCFSVQAVIPSRTVNRKSTDSPVECMGQEKGEFRE
Consider B2, for which, in experiment [5], the dissociation constant (Kd) was determined as 30.7 nM.
